Changes are numbered by the printed parent chain. In names and notes the source's numbering stands.
B1: FGF10 single-point mutant V123I (ligand)
chain: MGSSHHHHHHSSGLVPRGSHMLGQDMVSPEATNSSSSSFSSPSSAGRHVRSYNHLQGDVRWRKLFSFTKYFLKIEKNGKVSGTKKENCPYSILEITSVEIGVVAIKAINSNYYLAMNKKGKLYGSKEFNNDCKLKERIEENGYNTYASFNWQHNGRQMYVALNGKGAPRRGQKTRRKNTSAHFLPMVVHS
B2: FGF10 single-point mutant N181D (ligand)
chain: B1 chain with I105V, N163D
B3: FGF10 single-point mutant Q175E (ligand)
chain: B1 chain with I105V, Q157E

target: FGF receptor 2b (FGFR2b) naturally expressed on 4MBr-5 rhesus monkey bronchial epithelial cells (rhesus monkey); assay: cell-based or functional assay

Row | ED50, proliferation of lung epithelial 4MBr-5 cells (resazurin) [ng/mL] | Binder
1 | 0.4 | B1
2 | 1.6 | B2
3 | 0.2 | B3

From patent publication US20250353888A1 (ENANTIS S R O, published 2025)
